This note sets out measurements from publication doi:10.1101/2020.06.12.149468v2 (biorxiv, 2026).

Data set [1] deals with T1, mouse NR4A3 ligand-binding domain (Mus musculus, UniProt Q9QZB6).
T1 sequence (Q9QZB6 395-624): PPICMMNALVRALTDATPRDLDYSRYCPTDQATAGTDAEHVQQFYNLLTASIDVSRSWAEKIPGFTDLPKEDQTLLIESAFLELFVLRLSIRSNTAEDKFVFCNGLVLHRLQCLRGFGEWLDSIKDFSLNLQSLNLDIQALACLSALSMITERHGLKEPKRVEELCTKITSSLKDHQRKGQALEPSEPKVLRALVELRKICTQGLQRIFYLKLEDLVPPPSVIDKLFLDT
Briefly: isothermal titration calorimetry. On the technique in general: Isothermal titration calorimetry measures the heat released or taken up as one component is titrated into another.

Data set [2] relates to C[C@]12CCC(=O)C=C1CC[C@@H]1[C@@H]2[C@@H](O)C[C@@]2(C)[C@H]1CC[C@]2(O)C(=O)CO. Briefly: purified protein. The note with it: 50 mM phosphate pH 7.5, NADH.
Substrate in the data set “purified protein”: C[C@]12CCC(=O)C=C1CC[C@@H]1[C@@H]2[C@@H](O)C[C@@]2(C)[C@H]1CC[C@]2(O)C(=O)CO
In words: purified protein. The note with it: 50 mM phosphate pH 7.5, NADH. The source holds these as a separate data set.

Broadly, the Kd is the free concentration of one partner at which half of the binding sites on the other are occupied at equilibrium, for simple one-to-one binding. A low value points to tighter binding. Take `C[C@]12CCC(=O)C=C1CC[C@@H]1[C@@H]2[C@@H](O)C[C@@]2(C)[C@H]1CC[C@]2(O)[C@@H](O)CO` [20α-dihydrocortisol]: in data set [1], the affinity, expressed as Kd, was 21.9 ± 2.6 µM.
In turn, `CCCCC[C@H](O)/C=C/[C@H]1C=CC(=O)[C@@H]1C/C=C\CCCC(=O)O` [PGA2] registered a Kd in data set [1] of 66.6 ± 17.4 µM.
As a reminder, the Km is the substrate concentration at which the rate is half of its maximum. For orientation: kcat means the number of substrate molecules converted per active site and unit of time at saturation. In the case of “DesC ([Clostridium] scindens ATCC 35704; H50A)”, in data set [2], the Km was 23.99 ± 0.26 µM and the kcat is 0.208 ± 0.0148 s⁻¹.
“DesC ([Clostridium] scindens ATCC 35704; S47T)”: in data set [2], the Km stood at 77.78 ± 1.78 µM and the kcat was 0.011 ± 0.00067 s⁻¹.
Regarding “DesC ([Clostridium] scindens ATCC 35704; Y101R)”, in data set [2], the Km is listed as 628.65 ± 29.96 µM and the kcat came out at 0.0295 ± 0.005 s⁻¹.
As to “DesC ([Clostridium] scindens ATCC 35704; Y124R)”, in data set [2], the Km was found to be 61.01 ± 2.71 µM and the kcat amounted to 0.134 ± 0.00233 s⁻¹.

B1: DesC ([Clostridium] scindens ATCC 35704) (protein)
chain: MRQLFVTSIRDFEKNTMGTVDMMEAPMPEPKDEEIRIKVVYASICGSDTHILTGNLGEMESTTRSMLPMSFGHELSGVIDKVGSTAEKMGFKVGQKVVANYAKYCGCCENCREGKVNLCSNMGYRMNGFSEYAVYHMSQIFPIPDDADLKDYALVEPLTVALSSAEQAKISYGKSVAIMGAGGLGMMLVQLARLAGASTITVFDIVPEKLELALENGADYALNSAEEGVAERAIELAGGRYDCVLEGTGATAAAKLGLQLLARDGDAVYFAMYGKDPILPVNLQSDLYWDQKHIHGMIQGAWQFPKSIRMIPRMDFSKIIQKEHTLTNYKQAFEDLYSKKYAKIVIKMDE
Take B1: in “purified protein”, the Km was 11.62 ± 1.02 µM and the kcat amounted to 1.538 ± 0.125 s⁻¹.
